# Assay results from the supplement of paper PMC10567573.
# B1: HDAC6 (parent)
# chain: KMKTRELHRESSNFDSIYICPSTF
# Variants of: B1
# Assay: protein stability index of a GFP-peptide fusion (GPS, HEK-293T) (PSI 1-6); higher = more stable
# Details: c terminus: a fixed tail appended
# 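Also: lentivirally expressed fusions sorted by FACS into six bins by GFP to DsRed ratio, PSI derived from sequencing read proportions per bin multiplied by bin number.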
row,Variant,protein stability index
1,KMKDRELHRESSNFDSIYICPSTF,2.89
2,KMKHRELHRESSNFDSIYICPSTF,1.95
3,KMKLRELHRESSNFDSIYICPSTF,1.72
4,KMKGRELHRESSNFDSIYICPSTF,2.83
5,KMKSRELHRESSNFDSIYICPSTF,2.94
6,KMKKRELHRESSNFDSIYICPSTF,2.39
7,KMKARELHRESSNFDSIYICPSTF,2.29
8,KMKQRELHRESSNFDSIYICPSTF,2.26
9,KMKVRELHRESSNFDSIYICPSTF,2.08
10,KMKTSELHRESSNFDSIYICPSTF,2.21
11,KMKTEELHRESSNFDSIYICPSTF,2.73
12,KMKTFELHRESSNFDSIYICPSTF,1.94
13,KMKTGELHRESSNFDSIYICPSTF,2.39
14,KMKTKELHRESSNFDSIYICPSTF,2.38
15,KMKTDELHRESSNFDSIYICPSTF,2.62
16,KMKTIELHRESSNFDSIYICPSTF,1.83
17,KMKTVELHRESSNFDSIYICPSTF,2.27
18,KMKTYELHRESSNFDSIYICPSTF,1.8
19,KMKTQELHRESSNFDSIYICPSTF,2.08
20,KMKTMELHRESSNFDSIYICPSTF,2.4
21,KMKTLELHRESSNFDSIYICPSTF,3.32
22,KMKTPELHRESSNFDSIYICPSTF,2.36
23,KMKTAELHRESSNFDSIYICPSTF,1.98
24,KMKTHELHRESSNFDSIYICPSTF,2.88

row,Variant,protein stability index
1,KMKTTELHRESSNFDSIYICPSTF,2.15
2,KMKTNELHRESSNFDSIYICPSTF,2.46
3,KMKTWELHRESSNFDSIYICPSTF,1.72
4,KMKTCELHRESSNFDSIYICPSTF,1.91
5,KMKTRELHRESENFDSIYICPSTF,3.25
6,KMKTRELHRESCNFDSIYICPSTF,1.89
7,KMKTRELHRESNNFDSIYICPSTF,2.04
8,KMKTRELHRESMNFDSIYICPSTF,1.55
9,KMKTRELHRESWNFDSIYICPSTF,2.17
10,KMKTRELHRESQNFDSIYICPSTF,2.54
11,KMKTRELHRESANFDSIYICPSTF,2.34
12,KMKTRELHRESFNFDSIYICPSTF,1.74
13,KMKTRELHRESDNFDSIYICPSTF,2.29
14,KMKTRELHRESYNFDSIYICPSTF,1.53
15,KMKTRELHRESVNFDSIYICPSTF,2.38
16,KMKTRELHRESGNFDSIYICPSTF,3.05
17,KMKTRELHRESTNFDSIYICPSTF,2.17
18,KMKTRELHRESKNFDSIYICPSTF,2.74
19,KMKTRELHRESHNFDSIYICPSTF,2.46
20,KMKTRELHRESPNFDSIYICPSTF,2.12
21,KMKTRELHRESLNFDSIYICPSTF,1.83
22,KMKTRELHRESRNFDSIYICPSTF,1.95
23,KMKTRELHRESINFDSIYICPSTF,1.94
24,KMKTRELHRESSKFDSIYICPSTF,2.23

row,Variant,protein stability index
1,KMKTRELHRESSEFDSIYICPSTF,2.23
2,KMKTRELHRESSHFDSIYICPSTF,1.58
3,KMKTRELHRESSDFDSIYICPSTF,2.61
4,KMKTRELHRESSAFDSIYICPSTF,1.93
5,KMKTRELHRESSFFDSIYICPSTF,1.45
6,KMKTRELHRESSGFDSIYICPSTF,2.68
7,KMKTRELHRESSCFDSIYICPSTF,1.79
8,KMKTRELHRESSIFDSIYICPSTF,1.73
9,KMKTREKHRESSNFDSIYICPSTF,3.11
10,KMKTREVHRESSNFDSIYICPSTF,1.92
11,KMKTREQHRESSNFDSIYICPSTF,2.72
12,KMKTRETHRESSNFDSIYICPSTF,2.77
13,KMKTRERHRESSNFDSIYICPSTF,3.2
14,KMKTRENHRESSNFDSIYICPSTF,2.65
15,KMKTREPHRESSNFDSIYICPSTF,2.72
16,KMKTREEHRESSNFDSIYICPSTF,3.2
17,KMKTRECHRESSNFDSIYICPSTF,1.75
18,KMKTRESHRESSNFDSIYICPSTF,3.05
19,KMKTREFHRESSNFDSIYICPSTF,2.53
20,KMKTREMHRESSNFDSIYICPSTF,1.46
21,KMKTREGHRESSNFDSIYICPSTF,3.12
22,KMKTREHHRESSNFDSIYICPSTF,3.02
23,KMKTREIHRESSNFDSIYICPSTF,2
24,KMKTREDHRESSNFDSIYICPSTF,2.73

row,Variant,protein stability index
1,KMKTREAHRESSNFDSIYICPSTF,3.33
2,KMKTREYHRESSNFDSIYICPSTF,2.41
3,KMKTREWHRESSNFDSIYICPSTF,2.62
4,KMKTRELHCESSNFDSIYICPSTF,2.39
5,KMKTRELHIESSNFDSIYICPSTF,1.86
6,KMKTRELHFESSNFDSIYICPSTF,1.39
7,KMKTRELHTESSNFDSIYICPSTF,2.39
8,KMKTRELHWESSNFDSIYICPSTF,1.78
9,KMKTRELHGESSNFDSIYICPSTF,2.38
10,KMKTRELHNESSNFDSIYICPSTF,2.4
11,KMKTRELHEESSNFDSIYICPSTF,2.77
12,KMKTRELHYESSNFDSIYICPSTF,2.09
13,KMKTRELHKESSNFDSIYICPSTF,2.8
14,KMKTRELHDESSNFDSIYICPSTF,2.45
15,KMKTRELHQESSNFDSIYICPSTF,2.58
16,KMKTRELHAESSNFDSIYICPSTF,2.27
17,KMKTRELHPESSNFDSIYICPSTF,2.45
18,KMKTRELHMESSNFDSIYICPSTF,1.84
19,KMKTRELHHESSNFDSIYICPSTF,2.15
20,KMKTRELHSESSNFDSIYICPSTF,2.27
21,KMKTRELHVESSNFDSIYICPSTF,2.85
22,KMKTRELHLESSNFDSIYICPSTF,2.07
